Laboratory results from patent publication US20240376185A1 (SMIVET B V, published 2024).

B1: SVT22 (VHH)
VHH: QVQLQESGGGLVQAGESLRLSCTASGISFDDYAIGWFRQAPGQQRKGVACISKADGRTDYLGSVKGRFTLSTDNTKNTVHLQMNNLKPEDTALYTCAAEYKSCGMGYKPIDYWGQGMQVTVSS
B2: SVT15L-3FW4M (VHH)
VHH: QVQLQESGGGLVQTGGSLRLSCRASGRAFANYHFGWFRQAPGKDREFVASISWKGGSTYYANFALGRFTSSVDRAESSVYLQMSGLTPEDTATYYCAAHDGGDWNYHTGMDYWGQGTQVTVSS
B3: SVT08L (VHH)
VHH: QVQLQESGGGSVQAGGSLRLSCTASEFSYNDYTIAWFRRAAGKGRVEDGEGVASITTSYDRAYDNRIHYGDSVKGRFTISRDNAKNTVYLQMTNLNPSDTAVYYCGLDITPPGGIGASLTEGFLFDYWGQGTQVTVSS
B4: SVT06L (VHH)
VHH: QVQLQESGGGSVQAGGSLRLSCTASELSYDDYTIAWFRRAAGEGRVEDGEGVASITKSYDRAYDNKINYGHSVKGRFTISRDNAKNTVYLQMTDLLPSDTAVYYCALDITPPGGVGASLTEGFLFDYWGQGTQVTVSS
B5: SVT05 (VHH)
VHH: QVQLQESGGGLVQPGGSLRLSCSASGFSFTDDYGIGWFRSGPGKGREAVAPIADREAVAAIALSDGNTYYSASAKGRFTISRDNAKSTAYLQMNNLKPEDTATYYCAADFWGYGMSWPMATLWEYWGQGIQVTVSS

Columns and labels:
[1] = molecular target: T1, tetanus neurotoxin (TeNT), authentic tetanus holotoxin (Clostridium tetani, UniProt P04958 2-1315); assay: GT1b-TeNT inhibition ELISA (no SDA: 1.302, 1.257)
T1 sequence (P04958 2-457 limits assumed, chain 1 of 2): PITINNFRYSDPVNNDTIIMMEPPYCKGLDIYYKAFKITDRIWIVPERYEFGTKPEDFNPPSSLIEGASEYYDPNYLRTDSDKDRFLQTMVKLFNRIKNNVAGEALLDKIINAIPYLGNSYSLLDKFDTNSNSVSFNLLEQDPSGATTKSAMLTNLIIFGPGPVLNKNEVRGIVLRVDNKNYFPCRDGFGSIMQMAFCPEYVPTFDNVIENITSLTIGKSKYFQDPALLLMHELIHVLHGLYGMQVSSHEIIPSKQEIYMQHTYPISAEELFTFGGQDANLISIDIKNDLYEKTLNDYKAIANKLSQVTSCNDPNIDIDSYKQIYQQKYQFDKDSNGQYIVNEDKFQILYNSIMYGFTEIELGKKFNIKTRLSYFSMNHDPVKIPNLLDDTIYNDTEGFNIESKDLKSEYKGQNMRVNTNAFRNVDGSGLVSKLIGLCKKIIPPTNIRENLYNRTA
T1 sequence (P04958 458-1315 limits assumed, chain 2 of 2): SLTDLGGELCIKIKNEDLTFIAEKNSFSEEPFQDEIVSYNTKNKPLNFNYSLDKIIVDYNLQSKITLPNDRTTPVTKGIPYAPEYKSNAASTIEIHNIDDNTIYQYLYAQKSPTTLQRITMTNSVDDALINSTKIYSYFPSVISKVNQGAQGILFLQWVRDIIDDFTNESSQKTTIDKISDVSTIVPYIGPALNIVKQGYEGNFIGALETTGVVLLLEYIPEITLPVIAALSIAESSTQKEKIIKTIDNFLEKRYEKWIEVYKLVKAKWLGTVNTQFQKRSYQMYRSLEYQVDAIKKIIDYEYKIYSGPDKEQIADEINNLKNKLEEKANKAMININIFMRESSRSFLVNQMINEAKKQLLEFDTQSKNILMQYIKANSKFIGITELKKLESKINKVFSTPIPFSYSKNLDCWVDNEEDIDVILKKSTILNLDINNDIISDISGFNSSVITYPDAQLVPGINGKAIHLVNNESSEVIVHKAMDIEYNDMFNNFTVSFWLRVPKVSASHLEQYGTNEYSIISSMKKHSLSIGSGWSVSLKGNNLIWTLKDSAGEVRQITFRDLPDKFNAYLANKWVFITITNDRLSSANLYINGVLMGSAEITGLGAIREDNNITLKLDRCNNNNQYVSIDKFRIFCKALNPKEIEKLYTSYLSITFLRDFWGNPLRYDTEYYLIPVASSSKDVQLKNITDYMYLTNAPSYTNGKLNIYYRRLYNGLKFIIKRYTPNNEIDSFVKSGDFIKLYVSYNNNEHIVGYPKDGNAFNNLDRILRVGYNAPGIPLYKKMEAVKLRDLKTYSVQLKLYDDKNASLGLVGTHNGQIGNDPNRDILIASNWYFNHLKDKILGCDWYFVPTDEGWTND

[2] = molecular target: T1, tetanus neurotoxin (TeNT), authentic …; assay: ELISA, directly coated TeNT, E. coli supernatant
[3] = molecular target: T1, tetanus neurotoxin (TeNT), authentic …; assay: ELISA, cAb-TT2 captured TeNT, E. coli supernatant
[4] = molecular target: T2, recombinant tetanus toxin fragment C (rTTC) (Clostridium tetani, UniProt P04958 865-1315); assay: ELISA, directly coated rTTC, E. coli supernatant
T2 sequence: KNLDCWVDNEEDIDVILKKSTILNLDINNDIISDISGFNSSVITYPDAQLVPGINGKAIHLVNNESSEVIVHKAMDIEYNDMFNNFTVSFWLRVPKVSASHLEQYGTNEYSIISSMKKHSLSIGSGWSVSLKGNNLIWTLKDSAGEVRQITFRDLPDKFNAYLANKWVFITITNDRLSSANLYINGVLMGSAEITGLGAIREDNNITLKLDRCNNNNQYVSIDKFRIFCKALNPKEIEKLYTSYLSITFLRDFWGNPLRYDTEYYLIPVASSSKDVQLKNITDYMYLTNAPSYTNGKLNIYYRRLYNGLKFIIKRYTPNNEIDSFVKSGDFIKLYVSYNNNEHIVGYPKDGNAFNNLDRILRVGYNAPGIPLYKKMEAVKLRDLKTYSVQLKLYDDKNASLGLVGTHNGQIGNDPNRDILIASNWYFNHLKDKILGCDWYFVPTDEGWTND

[5] = molecular target: T3, tetanus neurotoxin (TeNT), authentic tetanus holotoxin (Clostridium tetani, UniProt P04958 2-1315); assay: ELISA: directly coated TeNT, anti-his6 PO
T3 sequence (P04958 2-457 limits assumed, chain 1 of 2): as the sequence (P04958 2-457 limits assumed, chain 1 of 2) above
T3 sequence (P04958 458-1315 limits assumed, chain 2 of 2): as the sequence (P04958 458-1315 limits assumed, chain 2 of 2) above

[6] = molecular target: T3, tetanus neurotoxin (TeNT), authentic …; assay: ELISA: directly coated TeNT, goat anti-llama Ig PO
[7] = molecular target: T3, tetanus neurotoxin (TeNT), authentic …; assay: bridging ELISA: coated TeNT, SDA, biotinylated TeNT, StrepPO (bivalent binding)
[8] = molecular target: T3, tetanus neurotoxin (TeNT), authentic …; assay: as above; remark: listed apart in the source
[9] = molecular target: T3, tetanus neurotoxin (TeNT), authentic …; assay: GT1b-TeNT inhibition ELISA
[10] = molecular target: T3, tetanus neurotoxin (TeNT), authentic …; assay: ELISA: directly coated TeNT, anti-his6 PO; remark: listed apart in the source
[11] = molecular target: T3, tetanus neurotoxin (TeNT), authentic …; assay: ELISA: directly coated TeNT, goat anti-llama Ig PO; remark: listed apart in the source
[12] = molecular target: T3, tetanus neurotoxin (TeNT), authentic …; assay: GT1b-TeNT inhibition ELISA; remark: listed apart in the source
[13] = molecular target: T4, recombinant tetanus toxin fragment C (rTTC) (Clostridium tetani, UniProt P04958 865-1315); assay: ELISA, directly coated rTTC, unlabelled binder
T4 sequence: T2 sequence

[14] = molecular target: T5, tetanus neurotoxin (TeNT), authentic tetanus holotoxin (Clostridium tetani, UniProt P04958 2-1315); assay: competition ELISA on TeNT, binder biotinylated; competitor mAb 6F57
Target sequence in this assay (P04958 2-457 limits assumed, chain 1 of 2): as the sequence (P04958 2-457 limits assumed, chain 1 of 2) above
Target sequence in this assay (P04958 458-1315 limits assumed, chain 2 of 2): as the sequence (P04958 458-1315 limits assumed, chain 2 of 2) above

[15] = molecular target: T5, tetanus neurotoxin (TeNT), authentic …; assay: competition ELISA on TeNT, binder biotinylated; competitor SVT06L
Target sequence in this assay (P04958 2-457 limits assumed, chain 1 of 2): as the sequence (P04958 2-457 limits assumed, chain 1 of 2) above
Target sequence in this assay (P04958 458-1315 limits assumed, chain 2 of 2): as the sequence (P04958 458-1315 limits assumed, chain 2 of 2) above

[16] = molecular target: T5, tetanus neurotoxin (TeNT), authentic …; assay: GT1b-TeNT inhibition ELISA, unlabelled binder
Target sequence in this assay (P04958 2-457 limits assumed, chain 1 of 2): as the sequence (P04958 2-457 limits assumed, chain 1 of 2) above
Target sequence in this assay (P04958 458-1315 limits assumed, chain 2 of 2): as the sequence (P04958 458-1315 limits assumed, chain 2 of 2) above

[17] = molecular target: T5, tetanus neurotoxin (TeNT), authentic …; assay: GT1b-TeNT inhibition ELISA, EC at A450 0.59
Target sequence in this assay (P04958 2-457 limits assumed, chain 1 of 2): as the sequence (P04958 2-457 limits assumed, chain 1 of 2) above
Target sequence in this assay (P04958 458-1315 limits assumed, chain 2 of 2): as the sequence (P04958 458-1315 limits assumed, chain 2 of 2) above

[18] = molecular target: T5, tetanus neurotoxin (TeNT), authentic …; assay: competition ELISA on TeNT, binder biotinylated; competitor SVT15L
[19] = molecular target: T5, tetanus neurotoxin (TeNT), authentic …; assay: competition ELISA on TeNT, binder biotinylated; competitor SVT03L
[20] = molecular target: T5, tetanus neurotoxin (TeNT), authentic …; assay: ELISA, directly coated TeNT, unlabelled binder
[21] = molecular target: T5, tetanus neurotoxin (TeNT), authentic …; assay: competition ELISA on TeNT, binder biotinylated; competitor SVT34L
[22] = molecular target: T5, tetanus neurotoxin (TeNT), authentic …; assay: competition ELISA on TeNT, binder biotinylated; competitor SVT16L
[23] = molecular target: T5, tetanus neurotoxin (TeNT), authentic …; assay: competition ELISA on TeNT, binder biotinylated; competitor SVT15L-3FW4M
[24] = molecular target: T5, tetanus neurotoxin (TeNT), authentic …; assay: competition ELISA on TeNT, binder biotinylated; competitor SVT08L
[25] = molecular target: T5, tetanus neurotoxin (TeNT), authentic …; assay: ELISA, directly coated TeNT, biotinylated binder
[26] = molecular target: T5, tetanus neurotoxin (TeNT), authentic …; assay: competition ELISA on TeNT, binder biotinylated; competitor mAb 11n185
[27] = molecular target: T5, tetanus neurotoxin (TeNT), authentic …; assay: competition ELISA on TeNT, binder biotinylated; competitor SVT02L
[28] = molecular target: T5, tetanus neurotoxin (TeNT), authentic …; assay: ELISA, TeNT captured with cAb-TT2, biotinylated binder
[29] = molecular target: T5, tetanus neurotoxin (TeNT), authentic …; assay: competition ELISA on TeNT, binder biotinylated; competitor SVT22L
[30] = molecular target: T5, tetanus neurotoxin (TeNT), authentic …; assay: competition ELISA on TeNT, binder biotinylated; competitor SVT13L
[31] = molecular target: T5, tetanus neurotoxin (TeNT), authentic …; assay: ELISA, TeNT captured with cAb-TT2, unlabelled binder
[32] = molecular target: T5, tetanus neurotoxin (TeNT), authentic …; assay: competition ELISA on TeNT, binder biotinylated; competitor mAb 6E7
[33] = molecular target: T5, tetanus neurotoxin (TeNT), authentic …; assay: competition ELISA on TeNT, binder biotinylated; competitor mAb 14F5

Row | Binder | absorbance at 450 nm [1] | absorbance at 450 nm [2] | absorbance at 450 nm [3] | absorbance at 450 nm [4] | maximal absorbance at 450 nm [13] | % inhibition of binding [14] | % inhibition of binding [15] | minimal absorbance at 450 nm [16] | concentration giving A450 of 0.59 [17] | % inhibition of binding [18] | % inhibition of binding [19] | EC resulting in A450 0.2 [20] | maximal absorbance at 450 nm [20] | % inhibition of binding [21] | % inhibition of binding [22] | % inhibition of binding [23] | % inhibition of binding [24] | EC resulting in A450 0.4 [25] | maximal absorbance at 450 nm [25] | % inhibition of binding [26] | other results
1 | B1 | 0.137 A450 | 1.08 A450 | 0.299 A450 | 0.138 A450 | – | – | – | – | – | – | – | – | – | – | – | – | – | – | – | – | –
2 | B2 | – | – | – | – | – | – | – | – | – | – | – | – | – | – | – | – | – | – | – | – | maximal absorbance value [5]: 0.19 A450; Effective SDA Concentration at A450 0.15 [6]: 6 ng/mL; maximal absorbance value [7]: 0.2 A450; Effective SDA Concentration at A450 0.3 [8]: > 1000 ng/mL; minimal absorbance value (GT1b-TeNT inhibition) [9]: 0.19 A450; Effective SDA Concentration at A450 0.15 [10]: 26 ng/mL; maximal absorbance value [11]: 0.35 A450; Effective SDA Concentration at A450 0.56 [12]: 31 ng/mL
3 | B3 | – | – | – | – | 0.502 | 50% | 95% | 0.486 | 0.411 µg/mL | 6% | 0% | 2.2 ng/mL | 1.37 | 8% | 8% | 12% | 96% | 0.4 ng/mL | 1.57 | 4% | % inhibition of binding [27]: 7%; EC resulting in A450 0.2 [28]: 0.52 ng/mL; maximal absorbance at 450 nm [28]: 1.2; % inhibition of binding [29]: 6%; % inhibition of binding [30]: 5%; EC resulting in A450 0.15 [31]: 3.6 ng/mL; maximal absorbance at 450 nm [31]: 0.36; % inhibition of binding [32]: 66%; % inhibition of binding [33]: 3%
4 | B4 | – | – | – | – | 0.543 | 53% | 96% | 0.481 | 0.317 µg/mL | 14% | -3% | 1.7 ng/mL | 1.39 | 11% | -3% | 12% | 97% | 0.39 ng/mL | 1.51 | 5% | % inhibition of binding [27]: 11%; EC resulting in A450 0.2 [28]: 0.37 ng/mL; maximal absorbance at 450 nm [28]: 1.2; % inhibition of binding [29]: 3%; % inhibition of binding [30]: 7%; EC resulting in A450 0.15 [31]: 2.6 ng/mL; maximal absorbance at 450 nm [31]: 0.409; % inhibition of binding [32]: 67%; % inhibition of binding [33]: 11%
5 | B5 | 0.985 A450 | 1.04 A450 | 0.548 A450 | 0.108 A450 | – | – | – | – | – | – | – | – | – | – | – | – | – | – | – | – | –
